# Patent publication US20150322160A1 (Bayer, published 2015)
# Numbering of substitutions follows the chain as printed.
# B1: MF-T-SPDP-DM4 (antibody)
# VH: QVELVQSGAEVKKPGESLKISCKGSGYSFTSYWIGWVRQAPGKGLEWMGIIDPGDSRTRYSPSFQGQVTISADKSISTAYLQWSSLKASDTAMYYCARGQLYGGTYMDGWGQGTLVTVSS
# VL: DIALTQPASVSGSPGQSITISCTGTSSDIGGYNSVSWYQQHPGKAPKLMIYGVNNRPSGVSNRFSGSKSGNTASLTISGLQAEDEADYYCSSYDIESATPVFGGGTKLTVLGQDIVLTQPPSVSGAPGQRVTISCSGSSSNIGSNYVSWYQQLPGTAPKLLIYNDNQRPSGVPDRFSGSKSGTSASLAITGLQSEDEADYYCSTYDRRTFSVFGGGTKLTVLGQ
# modifications: DM4 maytansinoid conjugated via SPDB (printed SPDP in Table 2) linker; DM4/Ab 3.6; attachment residues not stated
# B2: MF-T Fab (Fab, V domains shown)
# VH: B1 VH
# VL: DIALTQPASVSGSPGQSITISCTGTSSDIGGYNSVSWYQQHPGKAPKLMIYGVNNRPSGVSNRFSGSKSGNTASLTISGLQAEDEADYYCSSYDIESATPVFGGGTKLTVLG
# notes: Tested as Fab ('KD of Fab'); the Fab constant domains are not
# B3: MF-J-SPDP-DM4 (antibody, V domains shown)
# VH: QVELVQSGAEVKKPGESLKISCKGSGYSFTNYWIGWVRQMPGKGLEWMGVIMPSDSYTRYSPSFQGQVTISADKSISTAYLQWSSLKASDTAMYYCARYGHGMYGGALDVWGQGTLVTVSS
# VL: DIVLTQSPATLSLSPGERATLSCRASQSVRSSRLAWYQQKPGQAPRLLIYGASKRATGVPARFSGSGSGTDFTLTISSLEPEDFATYYCQQYYDFPPTFGQGTKVEIKR
# modifications: DM4 maytansinoid conjugated via SPDB (printed SPDP in Table 2) linker; DM4/Ab 2.8; attachment residues not stated
# B4: MOR06640-SPDP-DM4 (antibody, V domains shown)
# VH: B3 VH with E3Q
# VL: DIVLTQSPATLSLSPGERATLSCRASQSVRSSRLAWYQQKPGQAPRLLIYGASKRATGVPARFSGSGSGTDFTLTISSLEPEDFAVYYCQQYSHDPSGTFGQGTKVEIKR
# modifications: DM4 maytansinoid conjugated via SPDB (printed SPDP in Table 2) linker; DM4/Ab 3.6; attachment residues not stated
# B5: MF-J Fab (Fab, V domains shown)
# VH: B3 VH
# VL: B3 VL
# notes: as for B2
# B6: MOR 06640 Fab (Fab, V domains shown)
# VH: B3 VH with E3Q
# VL: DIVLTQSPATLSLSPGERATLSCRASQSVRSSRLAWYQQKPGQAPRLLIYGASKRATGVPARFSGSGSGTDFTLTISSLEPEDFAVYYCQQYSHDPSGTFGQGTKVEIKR
# notes: Tested as Fab ('KD of Fab'); the Fab constant domains are not; also called MOR6640
# B7: MF-226-SPDP-DM4 (antibody, V domains shown)
# VH: QVELVQSGAEVKKPGASVKVSCKASGYTFTGNYINWVRQAPGQGLEWMGIINPHGGDTKYAQKFQGRVTMTRDTSISTAYMELSSLRSEDTAVYYCARWHHGTWIFDYWGQGTLVTVSS
# VL: DIVLTQPPSVSGAPGQRVTISCSGSSSNIGSNYVSWYQQLPGTAPKLLIYNDNQRPSGVPDRFSGSKSGTSASLAITGLQSEDEADYYCSTYDRRTFSVFGGGTKLTVLG
# modifications: DM4 maytansinoid conjugated via SPDB (printed SPDP in Table 2) linker; DM4/Ab 3.3; attachment residues not stated
# B8: MF-226 Fab (Fab, V domains shown)
# VH: B7 VH
# VL: B7 VL
# notes: as for B2
# Legend:
# [1] = biological target: mesothelin expressed on cells (transfected MiaPaCa-2, HT29 C2, CHO A9; endogenous HelaMatu, OVCAR-3) (Homo sapiens (Human), UniProt Q13421 296-598); assay: cell-based or functional assay
# [2] = biological target: T1, mesothelin (40 kDa, C-terminal domain of the mesothelin precursor polypeptide) (Homo sapiens (Human), UniProt Q13421 296-598); assay: KD of Fab; method not stated
# T1 construct: Antigen of the Fab KD values
# T1 sequence (Q13421 other isoform, or with tags, fused parts or gaps limits assumed): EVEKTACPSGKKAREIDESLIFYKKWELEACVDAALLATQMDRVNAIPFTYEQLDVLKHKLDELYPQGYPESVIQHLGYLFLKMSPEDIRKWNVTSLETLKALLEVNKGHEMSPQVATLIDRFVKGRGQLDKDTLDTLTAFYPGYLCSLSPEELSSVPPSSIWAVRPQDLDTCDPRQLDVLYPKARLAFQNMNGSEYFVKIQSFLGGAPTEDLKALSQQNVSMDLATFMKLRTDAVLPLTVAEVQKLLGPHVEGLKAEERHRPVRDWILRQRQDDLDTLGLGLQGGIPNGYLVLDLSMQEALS
# Chain of mesothelin expressed on cells (transfected MiaPaCa-2, HT29 C2, CHO A9; endogenous HelaMatu, OVCAR-3) (Q13421 other isoform, or with tags, fused parts or gaps limits assumed): as above
Binder,"IC50 (nM), cell viability (WST-1), CHO A9* (Mesothelin+) [1] [nM]","IC50 (nM), cell viability (WST-1), HT29 C2 (Mesothelin+) [1] [nM]","IC50 (nM), cell viability (WST-1), HelaMatu [1] [nM]","IC50 (nM), cell viability (WST-1), MiaPaCa-2 (Mesothelin+) [1] [nM]","IC50 (nM), cell viability (WST-1), OVCAR-3 [1] [nM]",Kd [2] [nM]
B1,1,1.5,0.45,1.3,2.8,
B2,,,,,,16.3
B3,0.35,0.3,0.2,1.4,0.9,
B4,1.2,0.21,0.6,0.36,1.07,
B5,,,,,,9.2
B6,,,,,,0.19
B7,1.3,8,0.9,21,14.8,
B8,,,,,,58.3
